Source: US20260174875A1 (Novo Nordisk A/S, priority 2023, published 2026)
Numbered stars: 1 amine (or outer) side, 2 acyl side, 3 side chain; on linkers, the order of the positions; unused ones are H or OH. Square brackets hold non-standard residues; d marks the D form. Side chains are listed from the residue outwards. * marks the point of attachment. C20 diacid = O=C(O)CCCCCCCCCCCCCCCCCCC(=O)*; C18 diacid = O=C(O)CCCCCCCCCCCCCCCCC(=O)*; γGlu = O=C(O)[C@H](CCC(=O)[*:2])N[*:1]; Chem. 27 = not defined here; Chem. 28 = not defined here; Chem. 29 = not defined here; AEEA = NCCOCCOCC(=O)O; Aib = CC(C)(N)C(=O)O

T1: human GIP receptor (human, UniProt P48546 22-466)
T1 sequence (looked up): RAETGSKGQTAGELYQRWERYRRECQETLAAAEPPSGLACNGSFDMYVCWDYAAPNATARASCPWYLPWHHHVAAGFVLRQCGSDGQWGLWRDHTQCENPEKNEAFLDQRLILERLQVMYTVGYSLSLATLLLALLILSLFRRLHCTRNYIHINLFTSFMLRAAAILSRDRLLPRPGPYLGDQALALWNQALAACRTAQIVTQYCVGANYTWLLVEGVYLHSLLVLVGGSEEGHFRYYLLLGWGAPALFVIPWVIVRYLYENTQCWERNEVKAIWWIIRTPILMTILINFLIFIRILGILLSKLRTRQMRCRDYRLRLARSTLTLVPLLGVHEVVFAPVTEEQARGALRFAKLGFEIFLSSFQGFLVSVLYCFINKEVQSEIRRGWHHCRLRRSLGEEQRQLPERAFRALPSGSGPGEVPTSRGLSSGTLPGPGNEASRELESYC

T2: human amylin-3(a) receptor (human, UniProt P30988 25-474; O60896 24-148)
T2 sequence (looked up) 1: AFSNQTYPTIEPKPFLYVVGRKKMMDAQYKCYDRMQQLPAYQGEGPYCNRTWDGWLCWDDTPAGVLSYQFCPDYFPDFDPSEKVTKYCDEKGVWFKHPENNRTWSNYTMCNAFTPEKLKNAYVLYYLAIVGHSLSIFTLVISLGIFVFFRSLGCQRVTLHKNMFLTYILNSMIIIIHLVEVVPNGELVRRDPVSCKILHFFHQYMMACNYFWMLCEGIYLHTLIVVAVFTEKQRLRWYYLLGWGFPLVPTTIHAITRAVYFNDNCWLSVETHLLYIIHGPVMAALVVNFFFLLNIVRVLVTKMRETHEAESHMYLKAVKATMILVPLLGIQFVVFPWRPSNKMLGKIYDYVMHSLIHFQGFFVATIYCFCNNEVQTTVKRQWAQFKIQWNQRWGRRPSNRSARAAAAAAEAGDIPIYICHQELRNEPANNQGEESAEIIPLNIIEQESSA
T2 sequence (looked up) 2: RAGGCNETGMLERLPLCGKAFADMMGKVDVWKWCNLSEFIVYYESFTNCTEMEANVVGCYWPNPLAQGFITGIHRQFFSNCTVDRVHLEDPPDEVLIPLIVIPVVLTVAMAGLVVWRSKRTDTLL


Tests used:
Test in all cases: cell-based or functional assay
human GIP receptor [1] = molecular target: T1, human GIP receptor
[2] = molecular target: T2, human amylin-3(a) receptor
human GLP-1 receptor [3] = molecular target: T3, human GLP-1 receptor (human, UniProt P43220 24-463)
human GIP receptor [4] = molecular target: T1, human GIP receptor; remark: listed apart in the source
[5] = molecular target: T2, human amylin-3(a) receptor; remark: listed apart in the source
human GLP-1 receptor [6] = molecular target: T3, human GLP-1 receptor; remark: listed apart in the source

Row | hGIPR Potency, 1% HSA, EC50 [pM] (human GIP receptor [1]) | hAMYR3 Potency, 1% HSA, EC50 [pM] [2] | hGLP-1R Potency, 1% HSA, EC50 [pM] (human GLP-1 receptor [3]) | hGIPR Potency, no HSA, EC50 [pM] (human GIP receptor [4]) | hAMYR3 Potency, no HSA, EC50 [pM] [5] | hGLP-1R Potency, no HSA, EC50 [pM] (human GLP-1 receptor [6]) | Binder
1 | 11.2 pM | 108 pM | 43.1 pM | 2.58 pM | 2.3 pM | 13.3 pM | Compound 98 (peptide) peptide: Y[Aib]EGTFTSDYSILLEEQAAREFIEWLLAGGPSSGAGQAPGQAPLASHLSTAQTARLSAELHK([AEEA-AEEA-γGlu-C18 diacid])LATLPRTETGSGSP-NH2
2 | 29.9 pM | 595 pM | 162 pM | 3.62 pM | 3.73 pM | 16.8 pM | Compound 96 (peptide) peptide: Y[Aib]EGTFTSDYSILLEEQAAREFIEWLLAGGPSGGGGEASHLSTAQTQRLSAELHK([AEEA-AEEA-γGlu-C20 diacid])LATLPRTETGSGSP-NH2
3 | 8.76 pM | 93.1 pM | 13.9 pM | 3.87 pM | 3.07 pM | 4.1 pM | Compound 107 (reading uncertain) peptide: H[Aib]HGTFTSDYSILLEEQAAREFIEWLLAGGPSSGALQAPGQAPGASHLSTAQTARLSAELHRLATLPK(Chem. 28)TETGSGSP-NH2
4 | 22.8 pM | 233 pM | 146 pM | 3.13 pM | 3.76 pM | 17.9 pM | Compound 95 (peptide) peptide: Y[Aib]EGTFTSDYSILLEEQAAREFIEWLLAGGPSGGGGEASHLSTAQTQRLSAELHK([AEEA-AEEA-γGlu-C18 diacid])LATLPRTETGSGSP-NH2
5 | 12.2 pM | 134 pM | 47 pM | 2.24 pM | 3.26 pM | 11 pM | Compound 102 (reading uncertain) peptide: Y[Aib]EGTFTSDYSILLEEQAAREFIEWLLAGGPSSGAGQAPGQAPGASHLSTAQTQRLSAELHQLK(Chem. 28)TLPRTETGSGSP-NH2
6 | 129 pM | 95.5 pM | 179 pM | 1.87 pM | 3.08 pM | 3.24 pM | Compound 101 (reading uncertain) peptide: H[Aib]HGTFTSDYSILLEEQAAREFIEWLLAGGPSK(Chem. 28)GAPPPSGGGEASHLSTAQTARLSAELHQLATLPRTETGSGSP-NH2
7 | 7.41 pM | 129 pM | 36.2 pM | 2.09 pM | 2.82 pM | 16.7 pM | Compound 99 (not fully specified (residue 62)) peptide: Y[Aib]EGTFTSDYSILLEEQAAREFIEWLLAGGPSSGALQAPGQAPLASHLSTAQTQRLSAELHKLATLPRTETGSGSP-NH2
8 | 12.5 pM | 113 pM | 48.9 pM | 3.08 pM | 2.88 pM | 12.6 pM | Compound 105 (reading uncertain) peptide: Y[Aib]EGTFTSDYSILLEEQAAREFIEWLLAGGPSSGALQAPGQAPLASHLSTAQTARLSAELHK(Chem. 28)LATLPRTETGSGSP-NH2
9 | 10.3 pM | 31.2 pM | 11.1 pM | 4.8 pM | 2.07 pM | 3.33 pM | Compound 106 (reading uncertain) peptide: H[Aib]HGTFTSDYSILLEEQAAREFIEWLLAGGPSSGALQAPGQAPGASHLSTAQTARLSAELHRLK(Chem. 28)TLPRTETGSGSP-NH2
10 | 13.3 pM | 73.6 pM | 33.1 pM | 3.14 pM | 2.42 pM | 5.24 pM | Compound 103 (reading uncertain) peptide: H[Aib]HGTFTSDYSILLEEQAAREFIEWLLAGGPSSGAGQAPGQAPGASHLSTAQTARLSAELHK(Chem. 28)LATLPRTETGSGSP-NH2
11 | 58.3 pM | 211 pM | 204 pM | 1.69 pM | 12.8 pM | 10.4 pM | Compound 11 (reading uncertain) peptide: Y[Aib]EGTFTSDYSILLEEQAAREFIEWLLAGGPSK(Chem. 29)GEASELSTAALGRLSAELHELATLPRTETGSGSP-NH2
12 | 217 pM | 210 pM | 307 pM | 3.95 pM | 3.05 pM | 5.85 pM | Compound 100 (reading uncertain) peptide: H[Aib]HGTFTSDYSILLEEQAAREFIEWLLAGGPSK(Chem. 28)GAPPPSGGGEASHLSTAQTARLSAELHRLADLPRTETGSGSP-NH2
13 | 17.3 pM | 293 pM | 19.1 pM | 3.57 pM | 1.49 pM | 4.16 pM | Compound 104 (reading uncertain) peptide: H[Aib]HGTFTSDYSILLEEQAAREFIEWLLAGGPSSGAGQAPGQAPGASHLSTAQTARLSAELHK(Chem. 27)LATLPRTETGSGSP-NH2
14 | 42.4 pM | 175 pM | 246 pM | 2.11 pM | 6.8 pM | 13.8 pM | Compound 10 (reading uncertain) peptide: Y[Aib]EGTFTSDYSILLEEQAAREFIEWLLAGGPSK(Chem. 29)GAPPPSGGGEASELSTAALGRLSAELHELATLPRTETGSGSP-NH2
15 | 8.38 pM | 132 pM | 109 pM | 2.3 pM | 2.81 pM | 16.1 pM | Compound 97 (peptide) peptide: Y[Aib]EGTFTSDYSILLEEQAAREFIEWLLAGGPSSGAGQAPGASHLSTAQTQRLSAELHK([AEEA-AEEA-γGlu-C18 diacid])LATLPRTETGSGSP-NH2
